1 protein from publication PMC6177447, “Cryo-EM structure of the hibernating Thermus thermophilus 100S ribosome reveals a protein-mediated dimerization mechanism” (Nature Communications, 2018) can be followed below.

This series concerns the molecule itself. Kind of series: SEC; purified TtHPF without ribosome on Superdex200 Increase 10/300 in buffer F (20 mM Hepes/KOH pH 7.5, 100 mM KCl, 10% v/v glycerol, 1 mM DTT); elution volume compared to standard proteins.

What is called stoichiometry N is a count of units in the complex or per binding partner.

B1: Thermus thermophilus hibernation-promoting factor (TtHPF) (natural protein, UniProt Q5SIS0 1-186, looked up)
chain: MNIYKLIGRNLEITDAIRDYVEKKLARLDRYQDGELMAKVVLSLAGSPHVEKKARAEIQVDLPGGLVRVEEEDADLYAAIDRAVDRLETQVKRFRERRYVGKRHSYQGPPPPEVRDLEALRKPEEEEGPRIVRVKRFEMKPMDPEEAAFQMEALGHSFFVFRNAKTDEINVIYRRKDGNYGLIEPA
notes: Hibernation-promoting factor TtHPF of Thermus thermophilus, UniProt Q5SIS0; gene amplified from genomic DNA with primers from the start codon to the stop codon; residues 2-122 (NTD and linker) and 129-185 (CTD) were modelled in the cryo-EM maps; The forward primer encodes a TEV site (ENLYFQG) directly before Met1, so a Gly probably remains at the N-terminus after TEV cleavage (surmised); The …
For B1, the “stoichiometry N” value is 2.
